Assay: soluble on expression in E. coli; label from the status in PepcDB or PDB records

Sequence	soluble on expression in E. coli
MGSDKIHHHHHHMWSLMHPYLPATVRKWTNLNLSNHSFSLNTMKTKRLSEFFPGVRSYYIVGEIAIITPKRVNVDYNLVAEKIMQAHPKIKAVYLKKKVKGELRTNELEFLSGERISSTIYKENGVLFYVDINKVYVNPSLSGDRLKNLELVEEGSTVLDAFTGYGAIALNIAHKKRVYVVAGDINIDGLYMLKKSLSLNKIKGMIDIVQYDAHHLPFRDKVFKLSFGDNPTLIIDFKEELCRVSENVVFYILCESEDKANSSLGRTSWIKINDYSKNLFIFKGLVRC	not soluble
GPGSMAEEKIKIIVVGSVKSGKTTITNFLSGTRETATSKYYETNPLRIVETEIELDSMNFTDRRVVFSGGDAKTKRVLVQIWDLSGNSKHQAGWPAVANKADGIIFVFNPALKNGEKELSLWHKTFAVNQSELDALGNFAVRVPDKHCLVFAHHSTPPSNVAGEGLPSMPKGLEKIKVLETSLDYHSDNFKAAFDKLIESIVVARMEAEEDEVLQREGRMHF	soluble
MSLSQPNFYQRTHIPYTAYTPEIFQEFVDDYIDSLNSSFVPVKGIHEEQVRDEAVKLYNQLSDSLGVHRPPFPNPRVKTMVFTPFISMVGVTGSMGPFFCEFTLNGDLLPINYPATYTHELAHLLGISSEAEANFYAYQVCTRSQIKGIRFSGYFSILNHVLGNARRLLSEKEYADIINRIRPEIIELAKKNQEYWMAKYSPLIGDVQNWIYDLYLKGNKIESGRKNYSEVIGLLISYQVWKAKTASDEGHHHHHH	soluble
MKNAVHFGAGNIGRGFIGKLLADAEVEVTFADVDVPLVDQLSHKQEYKVKVVGTECKIDTVTHVTAVNSASEDVIDRIVKTDLVTTAVGPNVLDIIAKTIAKGIAKRFEAGNDAPLNIIACENMVRGTTHLKGEVYKHLDKSLHAKADELVGFVDSAVDRIVPPAEAANDDPLEVTVESFSEWIVDEQQFKGDIPNIAGMEKTNNLMAFVERKLFTLNTGHCITAYLGCLKGHRTIREAIEDPNIHAEVKQAMQESGEVLIRRYGFDHDMHNAYIEKILGRFANPYLVDEVDRVGRQPIRKLGANDRLVKPLLGTIEYGTENQTLLKGIAAALKYTNDTDPQAVELQTSLKEVGVTKTLAKYTGLAEDSDEVAQIETLYNQL	not soluble
MGSDKIHHHHHHMKRGLNLDQWVTWPGEDQWGDAKTILPYPEWRKFLGDDDLRALKGAGFDFLRMPVDPSPFLSDQTAALRDDLYASVLDSVRMINRAGLKVIVDMHLIPAGGSRKIGMAQVMDDPRTFDRYLDMVRKMARTLAGEDPEKVAFEPMNEPIVDCDSDGTSLWPDRQRELFAAARSSATKLTLVLTGACYSAASSLEKIDPKAISDDNVIWTFHSYDPFLLTHQGATWAGDFIPYVTGLPYPLNAVPKAQLDATLDIIRARIKAEAPWTRQSGLLAYLDEQVASMDSPDKLLGLMDAPFKKVEAWAKANGVKPENITLGEFGMIRQEYGNAYVMPAQYRAAYVRDMIARAEAHGFSWSVWSYGGAFGIVDAFNGDKGEPDVMDVIRSLH	not soluble
MGANGSTEDYNAIAEETRNYQIQEAARRKEHLEALERQDAKRRETLAETTRAQLAAAEAEQKRKDEMQQKMMESNLAAQVARNKRIDNAQNQQNLNIEKEIENSNNWLDKQRTANQAVMAQRYTDHQNVLTREKERLTETEIRLENNLVDAKKMLENTQNQFNDDKIGYHEKKVQQMNENASKIELLVSQTTNLVLEQEKNDIVHKLAIQGMEQRTILNRGAIIQAQSLDSVEREFIDAVNSTRQKGNEVANSISRMGSYAFQLKPEDPVWSRTSQVAYCKKEIQKVDLLLEVLSDNTEEISKQRENRNQEVLRCHAVACLIQNAITTVRNSLNQFGASLQENTFTNCIGYYTDLLEKNKTLTDVIVQLPAVSRSNHTTSAIMYSSQRFAIDVQNDRLALEQKGQLALQNMINGNGGNTT	not soluble
MSLADLTFPSLSYRTGPYAAGGIPFADGYADYFTLLNERDGGIGGVKANVLECETGYNTEKGVECYESTKGQGALVYQPLSTGITYQLIPKATADGIAIHSMGYGRTSAKNGNVFSHVFNYPANYWDGASGAVNYLLEINGGDIKGKKIALVYHNSAYGKEPIRTLEELSKKHGFDLSTLPVDHPGQEQKSQWLQIRRDKPDYVLMWGWGVMNQVAVQEAANIRFPMENFIGIWWSGSENDVLPAGDAANGYKALTFHNVGTAFPLFDDLQKYVIDAGKAAGAGDQVGTVLYNRGLYAAMLAAEAAKKAQEISGKADITAADMRDGMEALEMTEAKMAELGLPNFGPTFSVSCGNHGGDALVGVTQWDATSKTWSLISDFKPTDGDVIGALIEEDSSAYASENNISPRCNEGHHHHHH	soluble
AAAMVPGRSESWERGEPGRPALYFCGSIRGGREDRTLYERIVSRLRRFGTVLTEHVAAAELGARGEEAAGGDRLIHEQDLEWLQQADVVVAEVTQPSLGVGYELGRAVAFNKRILCLFRPQSGRVLSAMIRGAADGSRFQVWDYEEGEVEALLDRYFEADPPGQV	not soluble
MYKHIVKRGETIASIARDYRTSVEALLRANGLTAASVIFPGQEIVIPHLPPKGSIPYTIHISISRRQLTLKHRGRTIRTYPIGVGKMVTATPVGDFVIVNRQPNPGGPFGAMWLSLSKIHYGIHGTNDPSSIGKYVSKGCIRMHNKDVLELASIVPNGTEVFIRP	not soluble
MRVRGIYATALVALALKKGYLLSDLSKTMLSRVEVPVSTRPPNITVKHGEESRDEIVIHAFPYEAGERFEADLLEEVGHAAVRRSLLGLRSVVDARAAEGCRAEGPGGVLIIVKGGECPQPGSMVRVTVVRSPPGSDVVEGRVGVELTGLTVRVMHPGSGVRISRHLTSEDAAKALKAVEASGIDLNQFSVHIRSGARLASEGDISDEIRRLAREAERLWREGPGGEPAVLSRGEYLSLVYLPSTAKHVMDGLRTSLYPTVNNHHSLKSWSSEAEGLLTDFAEEGVREGLWGGEAGDLIVRFISSRLVGRTAVVLHRRPDGETIRLGPFRVSSYRPSSGRGGEIVLERTFRSPGVYDGLGLERRPGDRGVTHVYMGDWLTIHEYYDKSGRLLGVYANINTPPEVGFQGLKYLDLLVDVVKRPGEEPETIDQGELEKACRSGLLTDRLCEEAARQAERASGLLQSRYP	not soluble
MRKTKIVCTIGPASESIEKLEQLIEAGMNVARLNFSHGSHEEHGARIKNIREASKKTGKTVGILLDTKGPEIRTHDFVDGQAELVTGAEVVLSTEQVLGTAEKFSVSYAGLYDDVDPGSRILIDDGLIELEVIEKADGNIRTKVLNSGTVKNKKGVNVPNVSIKLPGITEKDVKDIIFGIEQKVDFIAASFVRKAADVLEIRELLEEHNAQYIQIVPKIENQEGIDNIDSILEVSDGLMVARGDMGVEIPPEEVPLVQKRLIKKCNVLGKPVITATQMLDSMQRNPRPTRAEASDVANAIFDGTDAIMLSGETAAGQYPVEAVTMMANIAVRVEKSLQYEDMFKKRIKEFTPTITDAISQSVAHTALALDVAAIVAPTESGYTAKMISKYRPKSPIVAVTSDEQVGRRLALVWGVQAFMAEKRAASTDEMLDTAIQTGMDAGLIGLGDTVVITAGVPVAETGTTNLMKIHVVGEEVAKGQGIGRKAAKGKVVVAKTAAEAVANVNEGDILVTTSTDKDMIPAIEKAAALVVEEGGLTSHAAVVGVSIGIPVIVGVNGVTATLKNGQEVTVDAARGIVYNGHAEVL	soluble
MGGGKYETQMCVIIIEDIFGKIVAKVMETILKESCQLSTLFYKLKGQISNTLIRKSVSTLINFGFVTFHLDTNNRTTYVADSDQIQHVISSPRACLIAKTLYGPAAESICVELISQGRLTVSETIRRIQATDETAVFSDIKKSFEELAAAHFLIRVPSVESEIHGCPQFVTNFDPFAISTNIMEKKEGTSTSDSTSNNRKRKADSTPEDGDAGQYWRINWIRFNGYLRDELIIDYLIGGGSKGTMTNLNVKKEETIEDPQGDRTQYITQNVAHLMFKINETRAKPMSMESITASLTDLQRLVKENGLNLAKPDIELACQILVDESDGIIRKLGESNGGIFIVDIRRAIRQICRHHCESLIREQFEGRAIRVMRLLENRHYLDEEQVEKLSMMSGKEAREMLYALVEEGYVFNKPVGRSNDFQPARTFYLYYVDLPRTIRGLVEYTCKLVRNLIVRQRHERTENKSVLDKDANVQPIIENIRSSEQLDEASKLAQIAEVEEMYLPGPDRAQLNRFRKAQATLLAAQDQSIRVLLSFKLFLASGEN	not soluble
MGSDKIHHHHHHMRLNRETIKDRAAWEKIGVRPPYFDLDEVEKNTKEQPKWVHFGGGNIFRGFVAAVLQNLLEEGKEDTGINVIELFDYEVIDKVYKPYDNLSIAVTIKPDGDFEKRIIASVMEALKGDPSHPDWERAKEIFRNPSLQLASLTITEKGYNIEDQAGNLFPQVMEDMKNGPVSPQTSMGKVAALLYERFKAGRLPIALLSLDNFSRNGEKLYSSVKRISEEWVKSGLVEKDFIDYLEKDVAFPWSMIDKIVPGPSEFIKEHLEKLGIEGMEIFVTSKRTHIAPFVNMEWAQYLVIEDSFPNGRPKLEGADRNVFLTDRETVEKAERMKVTTCLNPLHTALAIFGCLLGYKKIADEMKDPLLKKLVEGVGEEGIKVVVDPGIINPREFLNEVINIRLPNPYLPDTPQRIATDTSQKMPIRFGETIKAYHERPDLDPRNLKYIPLVIAGWCRYLMGIDDEGREMQLSPDPLLENLRSYVSKIKFGDPESTDDHLKPILSSQQLFRVNLYEVGLGEKIEELFKKMITGPRAVRKTLEEVVGREDG	not soluble
LRIYSADNLLIGEFGEERRDFIKIEEVPKSLKQAILAAEDDRFYQHYGVDYIGVLRAIYSNFKAGGAHQGASTITMQVARNFFLTKEKTLTRKFSEALLAFKIEHSLEKDQILELYINQIYLGQRSYGFSSAAQSYFGKQLTDINLAEAAMLAGLPKAPSRFNPIVNL	not soluble
MAHHHHHHMTNKKKMSNSETGGTRCVYVLSDIDGFKYRLVMEGDVRLLTTSKLKRYLQNATGLSAQQQELSFRGRVMQDGECGGDVGLVDGAVLQLRHVKGMRRTNSGDGRRVNRLPSSSMSMGGVAHRGRSSVVDAASCASPTAGLLTPLQGSHPRDGQNGGEAFTSPPPREMNYRSKRMGREAHALEIENARLEERLLEMERRLANASSDWRLQEEIEQLKGIIAQLLREKEAVGRSAEEKWRAKEEELVKELDLMREERRRLHREQTLFEEEQRALVRSLEEQVRSQQQRLLEQGTTITQQTRQRQPAMNVAEKVEKSLKQLSLELNIPQLHLDDNDTCVLPLGDGTNILVTLDTITERLFMYAVIANSLPSNAGKRLELFEMLLEGALLGRDMATGGVGVCLRNELIIMNVCVDIVHADEYALASIARPFMESVQHWSEAVKKMMPEKKN	not soluble
MTQAATILRTGRKFDQVLRGAREVFMSDGFEGANVDDIARAAGVSKATLYSYFPDKRLLFVEVAQTECQLMAERILSMIDEDRPVREVLTITATQLVAFLISDFAQQVFRICLAERERFPELARAFYAAGPENGQRQICEYLEKAVTKGELVIADIPMAAEQFSELCKTRLWTRAVFGIQTRFTQAEIDEVALAAVDTFLARYGA	not soluble
MTEQTILMGNLNEVAKKAAQWLINRKPIKSIIDWGISFSLWPPHFTTSCCGTEFGAFAAARFDAERYGMLPFSSARQSNILILEGTLSRKMGRAARIVYDQMPEPKYVIALGACILEGGIFWNSYNTVLPSDIGIPVDLYVPGCPIRPEAVARAVLMLQKKIRTQGALKT	not soluble
AIAADRTVPHAYPMSMDYEMCTPPRIYDQNFAEALSPKELLAPVLYHGYYIRPRINKQLERGFSQVESEDDWYRVLLDVCQFTPDEISVRTVDNLLEVSARHAQRMDQHGFVSREFTRTYILPMGVDPLLVQVSLSHDGILCIQAPRKTEDLEPQINQLKIKVEKKESTSK	soluble
MAERLLQSMSRVAGRCHPDCVKASDEQEDYHASQNAALVAVNLISSARLILKLDAEFTEYSAQFLMDNAGKEDDPGEVDQQRNQVTTENCLRYLAENVWTKKENGQGGMDQQRPVLTVKDCLELAFKKGLPRREHWAHLGCTFKAPPFACQIPRVPVKGEVVEVKTFDEAFKLLVHQPIGAKLHLFSPQIDNVGEGVYKGLTTGNETHYVGLRDVLIASVEEFEGDSVAIVKICYKKKLSFIKVSLSVRFLSVAHDGDKSKFIAPTGLLVDFCVPRLSIN	soluble
